System: T-cells
Assay: TL1A treatment of T-cells (IL12+IL18, TL1A+IL12+IL18, untreated): miR-155, INFG and IL22 expression
Type: cell-based
Description: T-cells were divided into 3 treatment groups: cells treated with IL12+IL18, cells treated with TL1A+IL12+IL18, and untreated cells (ut), as depicted in FIG. 13A.

[1] = TL1A+IL12+IL18 compared to no treatment or only IL12 and L18 treatment
[2] = treatment with TL1A (TL1A+IL12+IL18)

B1: TL1A: TNF Superfamily Member 15 (TL1A), cytokine encoded by TNFSF15, used to treat T-cells (protein)
chain: MAEDLGLSFGETASVEMLPEHGSCRPKARSSSARWALTCCLVLLPFLAGLTTYLLVSQLRAQGEACVQFQALKGQEFAPSHQQVYAPLRADGDKPRAHLTVVRQTPTQHFKNQFPALHWEHELGLAFTKNRMNYTNKFLLIPESGDYFIYSQVTFRGMTSECSEIRQAGRPNKPDSITVVITKVTDSYPEPTQLLMGTKSVCEVGSNWFQPIYLGAMFSLQEGDKLMVNVSDISLVDYTKEDKTFFGAFLL
- miR-155 expression (FIG. 13B): upregulation
- miR-155 3p [1]: upregulation
- miR-155 5p [1]: upregulation
- IL22 mRNA (cells treated with TL1A (TL1A+IL12+IL18)): increased
- INFG secretion [2]: increase
- levels of INFG mRNA [2]: increase

From US20230279491A1, “TREATMENTS FOR A SUB-POPULATION OF INFLAMMATORY BOWEL DISEASE PATIENTS” (CEDARS-SINAI MEDICAL CENTER, priority 2020, published 2023)
